From PMC11574245, “Transplacental SARS-CoV-2 protein ORF8 binds to complement C1q to trigger fetal inflammation” (The EMBO Journal, 2024)

biological target: T1, C1q Human protein (human, UniProt P02745 23-245; P02746 28-253; P02747 29-245); experiment: ELISA; plates coated with each of 28 ORF8 peptides (1 mM in carbonate buffer 50 mM pH 9.6, overnight 2-8 °C); human C1q (5, 10, 25 or 100 nM in 3% BSA/TBST) 2 h at room temperature; detected with sheep polyclonal anti-C1Q-HRP; conditions: both partners purified
T1 construct: human complement C1q subcomponent subunit A (A chain of the C1q complex); human complement C1q subcomponent subunit B (B chain of the C1q complex); human complement C1q subcomponent subunit C (C chain of the C1q complex); The methods call it recombinant human C1q; also called human C1q; purified human C1q protein; source: bought: Complement Technology (Cat. A099); copies: 6 + 6 + 6
T1 sequence (P02745 23-245, chain 1 of 3): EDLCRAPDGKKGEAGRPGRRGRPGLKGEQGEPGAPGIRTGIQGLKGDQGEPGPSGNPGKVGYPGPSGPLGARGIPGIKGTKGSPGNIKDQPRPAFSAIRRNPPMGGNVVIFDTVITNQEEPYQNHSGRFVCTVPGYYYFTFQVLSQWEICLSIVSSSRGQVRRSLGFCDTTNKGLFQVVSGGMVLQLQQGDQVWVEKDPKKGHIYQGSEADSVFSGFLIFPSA
T1 sequence (P02746 28-253, chain 2 of 3): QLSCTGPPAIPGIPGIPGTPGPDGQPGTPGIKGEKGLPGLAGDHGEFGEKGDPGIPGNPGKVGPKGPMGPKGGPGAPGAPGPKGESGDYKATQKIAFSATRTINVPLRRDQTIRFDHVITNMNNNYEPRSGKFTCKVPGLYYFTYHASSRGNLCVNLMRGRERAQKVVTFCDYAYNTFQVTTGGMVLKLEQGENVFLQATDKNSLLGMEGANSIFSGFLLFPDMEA
T1 sequence (P02747 29-245, chain 3 of 3): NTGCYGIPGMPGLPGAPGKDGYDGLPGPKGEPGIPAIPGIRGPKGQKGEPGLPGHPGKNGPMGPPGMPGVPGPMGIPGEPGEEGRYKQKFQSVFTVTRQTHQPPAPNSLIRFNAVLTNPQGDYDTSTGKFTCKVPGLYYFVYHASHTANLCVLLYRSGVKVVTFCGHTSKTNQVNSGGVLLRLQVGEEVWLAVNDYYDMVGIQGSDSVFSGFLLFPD

Question: Does CPIHFYSKWYIRVGA [SARS-CoV-2 ORF8 peptide #10 (C37-A51)] bind?
Answer: Result: binds

Question: Does YIDIGNYTVSCLPFT [SARS-CoV-2 ORF8 peptide #19 (Y73-T87)] bind?
Answer: Result: binds

Question: Does SLVVRCSFYEDFLEY [SARS-CoV-2 ORF8 peptide #25 (S97-Y111)] bind?
Answer: Result: binds
